From the supplement of paper PMC10567573

B1: SFRS1 (parent)
chain: RDIDLKNRRGGPPFAFVEFEDPRD
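Further: lentivirally expressed fusions sorted by FACS into six bins by GFP to DsRed ratio, PSI derived from sequencing read proportions per bin multiplied by bin number.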

Variants of: B1
Assay: protein stability index of a GFP-peptide fusion (GPS, HEK-293T) (PSI 1-6); higher = more stable
Details: c terminus: a fixed tail appended
RDIDLKNRRGGPPFAFVEMEDPRD showed a protein stability index of 3.19. In the case of RDIDLKNRRGGPPFAFVEAEDPRD, the protein stability index is reported as 2.95. For RDIDLKNRRGGPPFAFVEGEDPRD, the protein stability index was 4.03. Variant RDIDLKNRRGGPPFAFVEIEDPRD has a protein stability index of 3.27. Work on RDIDLKNRRGGPPFAFVEKEDPRD yielded a protein stability index of 3.18. RDIDLKNRRGGPPFAFVEQEDPRD showed a protein stability index of 3.94. For RDIDLKNRRGGPPFAFVENEDPRD, the protein stability index was 3.38. Variant RDIDLKNRRGGPPFAFVECEDPRD has a protein stability index of 3.05. RDIDLKNRRGNPPFAFVEFEDPRD gave a protein stability index of 3.83. Work on RDIDLKNRRGFPPFAFVEFEDPRD yielded a protein stability index of 3. In the case of RDIDLKNRRGPPPFAFVEFEDPRD, the protein stability index is reported as 3.36. RDIDLKNRRGWPPFAFVEFEDPRD gave a protein stability index of 3.1. Variant RDIDLKNRRGRPPFAFVEFEDPRD has a protein stability index of 3.25. With RDIDLKNRRGLPPFAFVEFEDPRD the protein stability index was 2.21. In the case of RDIDLKNRRGSPPFAFVEFEDPRD, the protein stability index is reported as 4.17. With RDIDLKNRRGVPPFAFVEFEDPRD the protein stability index was 3.89. Work on RDIDLKNRRGGPPGAFVEFEDPRD yielded a protein stability index of 4.92. RDIDLKNRRGGPPIAFVEFEDPRD showed a protein stability index of 4.37. Work on RDIDLKNRRGGPPTAFVEFEDPRD yielded a protein stability index of 4.9. Variant RDIDLKNRRGGPPLAFVEFEDPRD has a protein stability index of 3.92. RDIDLKNRRGGPPQAFVEFEDPRD showed a protein stability index of 5.27. RDIDLKNRRGGHPFAFVEFEDPRD gave a protein stability index of 4.53. RDIDLKNRRGGQPFAFVEFEDPRD showed a protein stability index of 4.17. Variant RDIDLKNRRGGLPFAFVEFEDPRD has a protein stability index of 3.5. Work on RDIDLKNRRGGNPFAFVEFEDPRD yielded a protein stability index of 4.72. Work on RDIDLKNRRGGEPFAFVEFEDPRD yielded a protein stability index of 4.72. For RDIDLKNRRGGKPFAFVEFEDPRD, the protein stability index was 4.42. Work on RDIDLKNRRGGRPFAFVEFEDPRD yielded a protein stability index of 3.93. Variant RDIDLKNRRGGIPFAFVEFEDPRD has a protein stability index of 3.13. RDIRLKNRRGGPPFAFVEFEDPRD gave a protein stability index of 3.45. In the case of RDIWLKNRRGGPPFAFVEFEDPRD, the protein stability index is reported as 2.35. With RDIKLKNRRGGPPFAFVEFEDPRD the protein stability index was 3.47. In the case of RDITLKNRRGGPPFAFVEFEDPRD, the protein stability index is reported as 3.28. In the case of RDINLKNRRGGPPFAFVEFEDPRD, the protein stability index is reported as 3.61. In the case of RDIGLKNRRGGPPFAFVEFEDPRD, the protein stability index is reported as 3.34. RDICLKNRRGGPPFAFVEFEDPRD showed a protein stability index of 3.33. For RDIALKNRRGGPPFAFVEFEDPRD, the protein stability index was 3.11. With RDIFLKNRRGGPPFAFVEFEDPRD the protein stability index was 2.81. Variant RDIILKNRRGGPPFAFVEFEDPRD has a protein stability index of 3.17. In the case of RDTDLKNRRGGPPFAFVEFEDPRD, the protein stability index is reported as 3.73. RDADLKNRRGGPPFAFVEFEDPRD gave a protein stability index of 4.29. For RDMDLKNRRGGPPFAFVEFEDPRD, the protein stability index was 3.57. Work on RDCDLKNRRGGPPFAFVEFEDPRD yielded a protein stability index of 3.75. RDNDLKNRRGGPPFAFVEFEDPRD gave a protein stability index of 3.81. In the case of RDFDLKNRRGGPPFAFVEFEDPRD, the protein stability index is reported as 3.64. In the case of RDYDLKNRRGGPPFAFVEFEDPRD, the protein stability index is reported as 3.56. With RDIDLKNRAGGPPFAFVEFEDPRD the protein stability index was 4.57. For RDIDLKNRTGGPPFAFVEFEDPRD, the protein stability index was 4.03. Variant RDIDLKNRGGGPPFAFVEFEDPRD has a protein stability index of 4.11. Work on RDIDLKNRCGGPPFAFVEFEDPRD yielded a protein stability index of 3.92. In the case of RDIDLKNRHGGPPFAFVEFEDPRD, the protein stability index is reported as 4.21. Variant RDIDLKNRDGGPPFAFVEFEDPRD has a protein stability index of 4.43. In the case of RDIDLKNRFGGPPFAFVEFEDPRD, the protein stability index is reported as 3.94. For RDIDLKNRNGGPPFAFVEFEDPRD, the protein stability index was 4.5. For RDIDLKNRRGGPPFARVEFEDPRD, the protein stability index was 5. RDIDLKNRRGGPPFAVVEFEDPRD showed a protein stability index of 4.62. In the case of RDIDLKNRRGGPPFATVEFEDPRD, the protein stability index is reported as 4.96. In the case of RDIDLKNRRGGPPFAAVEFEDPRD, the protein stability index is reported as 5.03. Variant RDIDLKNRRGGPPFAGVEFEDPRD has a protein stability index of 5.32. Work on RDIDLKNRRGGPPFALVEFEDPRD yielded a protein stability index of 4.81. With RDIDLKNRRGGPPFAFVHFEDPRD the protein stability index was 2.51. For RDIDLKNRRGGPPFAFVLFEDPRD, the protein stability index was 1.9. RDIDLKNRRGGPPFAFVRFEDPRD showed a protein stability index of 3.13. For RDIDLKNRRGGPPFAFVDFEDPRD, the protein stability index was 3.22. RDIDLKNRRGGPPFAFVIFEDPRD showed a protein stability index of 2.24. In the case of RDIDLKNRRGGPPFAFVYFEDPRD, the protein stability index is reported as 2.3. In the case of RDIDLKNRRGGPPFAFVKFEDPRD, the protein stability index is reported as 2.64. With RDIDLKNRRGGPPFAFVNFEDPRD the protein stability index was 3.24. With RDIDLKNRRGGPPFAFVEFEDPRC the protein stability index was 2.46. With RDIDLKNRRGGPPFAFVEFEDPRE the protein stability index was 4.76. RDIDLKNRRGGPPFAFVEFEDPRT showed a protein stability index of 3.13. TDIDLKNRRGGPPFAFVEFEDPRD showed a protein stability index of 3.94. Variant NDIDLKNRRGGPPFAFVEFEDPRD has a protein stability index of 4.2. With KDIDLKNRRGGPPFAFVEFEDPRD the protein stability index was 3.57. Work on CDIDLKNRRGGPPFAFVEFEDPRD yielded a protein stability index of 4.2. LDIDLKNRRGGPPFAFVEFEDPRD gave a protein stability index of 4.21. With MDIDLKNRRGGPPFAFVEFEDPRD the protein stability index was 4.04. Work on PDIDLKNRRGGPPFAFVEFEDPRD yielded a protein stability index of 3.81. With RDIDLKNRRGGPPFAFVEFEDQRD the protein stability index was 4.44. With RDIDLKNRRGGPPFAFVEFEDARD the protein stability index was 3.93. In the case of RDIDLKNRRGGPPFAFVEFEDWRD, the protein stability index is reported as 3.55. Variant RDIDLKNRRGGPPFAFVEFEDCRD has a protein stability index of 3.8. RDIDLKNRRGGPPFAFVEFEDLRD showed a protein stability index of 3.19. RDIDLKNRRGGPPFAFVEFEDTRD gave a protein stability index of 3.99. RDIDLKNRRGGPPFAFVEFEDFRD gave a protein stability index of 2.9. In the case of RDIDLKNRRGGPPFAFVEFEDRRD, the protein stability index is reported as 3.62. With RDIDLKNRRGGPPFAFVEFEDYRD the protein stability index was 3.58. In the case of RDIDLKNRRGGPPFAFVEFEDIRD, the protein stability index is reported as 3.94. Variant RDIDLKNRRGGPPFAFVEFEDVRD has a protein stability index of 3.76. Variant RPIDLKNRRGGPPFAFVEFEDPRD has a protein stability index of 3.51. RFIDLKNRRGGPPFAFVEFEDPRD gave a protein stability index of 2.91. With RTIDLKNRRGGPPFAFVEFEDPRD the protein stability index was 3.19. RSIDLKNRRGGPPFAFVEFEDPRD gave a protein stability index of 3.6. In the case of RRIDLKNRRGGPPFAFVEFEDPRD, the protein stability index is reported as 3.34.
